This passage reports binding result and EC50 results from article PMC10418163 (bioRxiv, 2024).

For assay [1], the target named is Pseudomonas aeruginosa PhuR refolded from inclusion bodies (Pseudomonas aeruginosa PAO1, UniProt Q9HV88). Put plainly: SEC. (In general: Size exclusion chromatography separates by hydrodynamic size, large species first.)
Assay [2] has as its target Pseudomonas aeruginosa PhuR, natively expressed (purified from E. coli outer membranes, heme-bound) (Pseudomonas aeruginosa PAO1, UniProt Q9HV88). Put plainly: ELISA.

B1: synthetic antibody sAB11 (Fab, V domains shown)
VH: EVQLVESGGGLVQPGGSLRLSCAASGFNFYYYSIHWVRQAPGKGLEWVASISPYYGSTYYADSVKGRFTISADTSKNTAYLQMNSLRAEDTAVYYCARSMNWYYSSPYGMSQGMDYWGQGTLVTVSS
VL: DIQMTQSPSSLSASVGDRVTITCRASQSVSSAVAWYQQKPGKAPKLLIYSASSLYSGVPSRFSGSRSGTDFTLTISSLQPEDFATYYCQQGSSSPLTFGQGTKVEIK
In general, EC50 refers to the concentration at which the effect is half-maximal. Regarding B1, the binding result in assay [1] is reported as “binds”. In addition, in assay [2], the EC50 was ~9 nM.
